Eight substances from patent US20190314479A1 can be followed below.

The target of one assay is HLA-A2 molecules. Nature of the assay: T2A2 peptide binding assay to HLA-A2.
With “HPV-16 E6 agonist peptide E6-A1 (L19V) (peptide; other documents disagree on this pair)”, the T2A2 Binding was found to be 1340. The same measure, in the same setting: the result for “HPV-16 E6 agonist peptide E6-A3 (Q91L/L99V) (peptide; other documents disagree on this pair)” reads 1280; that for “HPV-16 E6 agonist peptide E6-A2 (C80V) (peptide; other documents disagree on this pair)”, 877; that for “HPV-16 E6 native peptide E6-1 (E6 11-19)”, 853. “HPV-16 E7 agonist peptide E7-A3 (T86V) (peptide; other documents disagree on this pair)” displayed a T2A2 Binding of 1260. Same read-out and setting: the result for “HPV-16 E7 agonist peptide E7-A2 (L15V) (peptide; other documents disagree on this pair)” reads 1530; that for “HPV-16 E7 agonist peptide E7-A1 (T19V) (peptide; other documents disagree on this pair)”, 1170.

In another assay the target is HLA-A2 molecules. Nature of the assay: T2A2 peptide binding assay to HLA-A2, negative control.
NEG (Negative control) (peptide): the T2A2 Binding came out at 812.
